Test results published in the RNAGym collection of RNA variant scans (doi:10.1073/pnas.2313332121).
This sample holds only a part of the variants without activity.

B1: TPR 5TU (parent)
chain: GGAUCUUCUCGAUCUAACAAAAAAGACAAAUCUGCCACAAAGCUUGAGAGCAUCUUCGGAUGCAGAGGCGGCAGCCUUCGGUGGCGCGAUAGCGCCAACGUUCUCAACUAUGACACGCAAAACGCGUGCUCCGUUGAAUGGAGUUUAUCAUG

Variants of: B1
Assay: polymerase ribozyme fitness, log enrichment relative to wild type (log ratio); higher = more active; in vitro selection for triplet polymerase activity
Procedure, shortened: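 Fitness measures genotype enrichment against wild-type enrichment on a logarithmic scale, with inverse-variance-weighted averaging of replicates. The logarithm is base 2, and genotypes were kept only with ≥10 input reads and ≥1 read per output in Illumina sequencing. The sequenced libraries came from one triplicate in vitro selection round, including frozen incubation at −7 °C, of PCR-built, transcribed mutant libraries of each subunit of a heterodimeric triplet polymerase ribozyme.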

Variant	polymerase ribozyme fitness (log ratio)
U61A C99G	-3.23
A60U G86A A150C	≤ -4.2
A60G G71A C75A C93U C118G	≤ -4.2
A60G G67U G86A	-4.13
A60G U61G C76A G124C C125G	≤ -4.2
G59C U77A C96G C105U G140A	≤ -4.2
A60G G143U	-1.77
A60G G100A U151G	≤ -4.2
U61G C116A	-0.386
A60G G74A	-3.26
A60C G94C A97G A98G U134C	-3.8
G62A U82A	-0.432
G59U G67A G92U	-3.83
A60U C96G	-3.34
A60C G71C C93G G140A U151C	≤ -4.2
G59U C96U A121C G126A U146G	-2.76
A60U C85G G92C U102G	≤ -4.2
A60G C114U	-1.83
U61A A73G C93U C125A	-3.14
A60G C85A	-0.96
G59C U61A A64C	≤ -4.2

Variant	polymerase ribozyme fitness (log ratio)
G62A G67A C72U C75G C93G C95U A120G	≤ -4.2
G59U G80A	-0.046
G59U A60C G83A C116U C118G	-2.5
A60G C96A A121U	-0.437
A60G A66C G94U C108U C125U U139C	-4
G59U A60G C93U	-3.87
A60C U61A C69G G74A U146G A150C	≤ -4.2
A60U G67A A91G A137U	≤ -4.2
A60C C96U A142C G143A	≤ -4.2
G59U A107C A121U	-3.86
G59U A106G C114U	-1.65
A60U C85G A89U	≤ -4.2
U61A C69U A98U	-2.9
G62C C76U U139G	-3.09
A60G G68A U139A	≤ -4.2
G59C G124A U151C	-3.78
U61A C76A	-3.6
G62A C103U	-1.66
G59U A64G A89G A107C	≤ -4.2
U61A U78G C95U A107C U148G A150U	≤ -4.2
U61A G117A	-0.98

Variant	polymerase ribozyme fitness (log ratio)
U61C C87A	≤ -4.2
A60C A91U C93G A122C	≤ -4.2
A60C C99G U101G	≤ -4.2
G59C G92U C105A C125A C149U	≤ -4.2
U61A C85A C96A A121G	≤ -4.2
U61G G88A	-4.18
G62C C72U C85U C108U	≤ -4.2
U61A C76U U102G U109C	≤ -4.2
A60U G86A	-2.78
A60C C85A G124C	-2.54
A60G C96U	0.674
G59U C93A	-3.58
A60G C93U U104G G143C	-3.09
G59U C103U	-0.503
A60C C85U	-1.01
A60G C69A A91U A97U U134C	≤ -4.2
U61G G94A C108G	≤ -4.2
A60G A110G G136A	-2.56
A60G G67A U78G C96G A120U G140U A147G	≤ -4.2
A60U U61A G86A C93A A110C G133A	≤ -4.2
U61A C76A C87U	-3.68

Variant	polymerase ribozyme fitness (log ratio)
G59U C85G A119U G128A	-4.19
A60U G141U	0.392
A60U C76A A120U	-1.94
U61G G83A	-1.01
U61C G67A G68C C79U A98G	≤ -4.2
G59U A60U	-0.703
A60C C76U G80C G117U C123A	≤ -4.2
A60G C85A U101G	-2.94
G59U A97C	-0.238
A60C A73U	-3.54
A60U A64C A89U C116G G133C A147C U148C	≤ -4.2
U61A C95A	-1.41
G59C U109G	-0.84
G62C C79U G141U	≤ -4.2
G59U A66G A91G G100U U134A G143A A147G A150C	≤ -4.2
U61A A98U U134G G140U U145A	≤ -4.2
U61G G71U C87U G143A	≤ -4.2
G62A A64C C85U C95G C105G A121U U134G U139G U151C	≤ -4.2
G59U C69U G86A C95G A107U	≤ -4.2
U61A C103G A115U	≤ -4.2
U61A A107C C114U G140U	≤ -4.2
